IntAct's records for PubMed 16968782

B1: Nephrin (Homo sapiens), O60500-1 (parent)
chain: MALGTTLRASLLLLGLLTEGLAQLAIPASVPRGFWALPENLTVVEGASVELRCGVSTPGSAVQWAKDGLLLGPDPRIPGFPRYRLEGDPARGEFHLHIEACDLSDDAEYECQVGRSEMGPELVSPRVILSILVPPKLLLLTPEAGTMVTWVAGQEYVVNCVSGDAKPAPDITILLSGQTISDISANVNEGSQQKLFTVEATARVTPRSSDNRQLLVCEASSPALEAPIKASFTVNVLFPPGPPVIEWPGLDEGHVRAGQSLELPCVARGGNPLATLQWLKNGQPVSTAWGTEHTQAVARSVLVMTVRPEDHGAQLSCEAHNSVSAGTQEHGITLQVTFPPSAIIILGSASQTENKNVTLSCVSKSSRPRVLLRWWLGWRQLLPMEETVMDGLHGGHISMSNLTFLARREDNGLTLTCEAFSEAFTKETFKKSLILNVKYPAQKLWIEGPPEGQKLRAGTRVRLVCLAIGGNPEPSLMWYKDSRTVTESRLPQESRRVHLGSVEKSGSTFSRELVLVTGPSDNQAKFTCKAGQLSASTQLAVQFPPTNVTILANASALRPGDALNLTCVSVSSNPPVNLSWDKEGERLEGVAAPPRRAPFKGSAAARSVLLQVSSRDHGQRVTCRAHSAELRETVSSFYRLNVLYRPEFLGEQVLVVTAVEQGEALLPVSVSANPAPEAFNWTFRGYRLSPAGGPRHRILSSGALHLWNVTRADDGLYQLHCQNSEGTAEARLRLDVHYAPTIRALQDPTEVNVGGSVDIVCTVDANPILPGMFNWERLGEDEEDQSLDDMEKISRGPTGRLRIHHAKLAQAGAYQCIVDNGVAPPARRLLRLVVRFAPQVEHPTPLTKVAAAGDSTSSATLHCRARGVPNIVFTWTKNGVPLDLQDPRYTEHTYHQGGVHSSLLTIANVSAAQDYALFTCTATNALGSDQTNIQLVSISRPDPPSGLKVVSLTPHSVGLEWKPGFDGGLPQRFCIRYEALGTPGFHYVDVVPPQATTFTLTGLQPSTRYRVWLLASNALGDSGLADKGTQLPITTPGLHQPSGEPEDQLPTEPPSGPSGLPLLPVLFALGGLLLLSNASCVGGVLWQRRLRRLAEGISEKTEAGSEEDRVRNEYEESQWTGERDTQSSTVSTTEAEPYYRSLRDFSPQLPPTQEEVSYSRGFTGEDEDMAFPGHLYDEVERTYPPSGAWGPLYDEVQMGPWDLHWPEDTYQDPRGIYDQVAGDLDTLEPDSLPFELRGHLV
B2: Nephrin (Homo sapiens), O60500-1 (parent)
chain: B1 chain
partner: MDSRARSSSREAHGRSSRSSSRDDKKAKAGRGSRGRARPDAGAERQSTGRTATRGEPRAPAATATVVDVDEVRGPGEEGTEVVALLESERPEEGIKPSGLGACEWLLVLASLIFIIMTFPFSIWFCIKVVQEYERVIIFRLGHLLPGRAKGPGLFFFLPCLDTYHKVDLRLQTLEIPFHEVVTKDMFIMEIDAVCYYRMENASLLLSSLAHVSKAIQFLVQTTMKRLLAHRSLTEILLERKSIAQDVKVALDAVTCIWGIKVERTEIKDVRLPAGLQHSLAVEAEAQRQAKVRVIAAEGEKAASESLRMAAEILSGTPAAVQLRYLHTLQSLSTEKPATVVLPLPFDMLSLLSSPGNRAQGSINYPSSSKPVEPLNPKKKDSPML

Variants of: B1
Settings: with arrb2_human ARRB2, P32121
arrb2_human ARRB2, P32121, sequence (P32121 whole entry): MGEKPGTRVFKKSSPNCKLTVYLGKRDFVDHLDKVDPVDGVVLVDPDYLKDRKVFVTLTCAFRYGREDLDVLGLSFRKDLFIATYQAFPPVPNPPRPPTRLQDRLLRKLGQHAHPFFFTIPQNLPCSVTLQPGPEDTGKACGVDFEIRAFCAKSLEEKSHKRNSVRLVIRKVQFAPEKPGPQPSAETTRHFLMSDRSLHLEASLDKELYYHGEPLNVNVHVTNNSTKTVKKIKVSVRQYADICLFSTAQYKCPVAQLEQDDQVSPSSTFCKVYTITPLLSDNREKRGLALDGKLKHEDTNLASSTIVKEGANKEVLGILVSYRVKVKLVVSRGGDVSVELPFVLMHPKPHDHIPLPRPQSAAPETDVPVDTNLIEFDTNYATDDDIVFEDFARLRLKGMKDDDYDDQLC

| effect of a mutation on the interaction | Variant |
| --- | --- |
| decreasing interaction strength | Y1193A |

Variants of: B2
Settings: with podo_mouse Nphs2, Q91X05

| effect of a mutation on the interaction | Variant |
| --- | --- |
| disrupting interaction strength | Y1193F |
